{
  "source": "patent US10933132B2",
  "about": "“Combination of epigenetic factors and bispecific compounds targeting CD33 and CD3 in the treatment of myeloid leukemia” (AMGEN RESEARCH (MUNICH) GMBH, priority 2013, dated 2021)",
  "tested_on": "KG1α AML cells",
  "assay": "G-CSF up-regulation of CD33 on AML cell lines, flow cytometry",
  "assay_type": "cell-based",
  "details": "10 days; for CD33 MFI Ratio: KG1α, untreated 16.5",
  "experimental": "AML cell lines OCI-AML3 and KG1α were seeded in 24-well plates at 5×10^5 cells/ml on day 0. Cells were either left untreated (UT) or treated with 200 ng/ml (C1) or 2000 ng/ml (C2) G-CSF (Peprotech) for 10 days. G-CSF was freshly added to the cultures biweekly. On day 10, cells were harvested and analyzed for changes in CD33 surface expression by flow cytometry.",
  "data": [
    {"molecule": "G-CSF: glycoprotein cytokine that stimulates the bone marrow to produce granulocytes and stem cells (Peprotech) (protein, UniProt P09919 31-207, looked up) Granulocyte …: TPLGPASSLPQSFLLKCLEQVRKIQGDGAALQEKLVSECATYKLCHPEELVLLGHSLGIPWAPLSSCPSQALQLAGCLSQLHSGLFLYQGLLQALEGISPELGPTLDTLQLDVADFATTIWQQMEELGMAPALQPTQGAMPAFASAFQRRAGGVLVASHLQSFLEVSYRVLRHLAQP", "values": [
      {"measurement": "upregulation of CD33 (in words)", "setting": "KG1α AML cells, 200 and 2000 ng/ml", "result": "low upregulation"},
      {"measurement": "CD33 MFI Ratio", "setting": "C1 = 200 ng/ml G-CSF", "result": 17.9},
      {"measurement": "CD33 MFI Ratio", "setting": "C2 = 2000 ng/ml G-CSF", "result": 19.2}
    ]}
  ]
}
